Laboratory results from patent publication US20200371101A1.
Where two headings read alike, the source gives them in different places. Bridge positions count the residues as written; N and C are the ends. Square brackets hold non-standard residues; d marks the D form. Ends that are not written are not given here. Az4 = not defined here

How the values were obtained:
[1] = target: His-tagged IDO1 human recombinant protein (71182, BPS Biosciences) (human) (UniProt P14902); assay: cell-based or functional assay
Sequence of His-tagged IDO1 human recombinant protein (71182, BPS Biosciences) (human) (P14902 2-403 limits assumed): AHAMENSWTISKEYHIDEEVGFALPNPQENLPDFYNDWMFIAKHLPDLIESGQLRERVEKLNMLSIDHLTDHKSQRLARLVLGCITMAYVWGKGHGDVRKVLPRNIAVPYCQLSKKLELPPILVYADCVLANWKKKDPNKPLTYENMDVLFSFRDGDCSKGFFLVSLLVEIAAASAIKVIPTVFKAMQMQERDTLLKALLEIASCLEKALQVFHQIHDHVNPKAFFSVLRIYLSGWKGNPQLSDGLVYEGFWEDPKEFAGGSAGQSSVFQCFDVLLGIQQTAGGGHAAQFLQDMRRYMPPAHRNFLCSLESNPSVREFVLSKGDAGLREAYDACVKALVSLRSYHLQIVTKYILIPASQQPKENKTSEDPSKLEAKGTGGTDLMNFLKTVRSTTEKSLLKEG

[2] = target: His-tagged IDO1 human recombinant protein (71182, BPS Biosciences) (human) (UniProt P14902); assay: ELISA binding assay; deprotected small molecule (hydroxyamidine free)
[3] = target: His-tagged IDO1 human recombinant protein (71182, BPS Biosciences) (human) (UniProt P14902); assay: cell-based or functional assay; remark: listed apart in the source
[4] = target: His-tagged IDO1 human recombinant protein (71182, BPS Biosciences) (human) (UniProt P14902); assay: binding affinity, assay not named
[5] = target: His-tagged IDO1 human recombinant protein (71182, BPS Biosciences) (human) (UniProt P14902); assay: ELISA binding assay; small molecule masked as its oxadiazolone (protected)
[6] = target: His-tagged IDO1 human recombinant protein (71182, BPS Biosciences) (human) (UniProt P14902); assay: ELISA binding assay
[7] = target: His-tagged IDO1 human recombinant protein (71182, BPS Biosciences) (human) (UniProt P14902); assay: ELISA: biotin-PEG3 macrocycle on NeutrAvidin plate, His-tagged human IDO1 titrated, AP-conjugated anti-6XHis antibody, fluorescence
[8] = target: His-tagged IDO1 human recombinant protein (71182, BPS Biosciences) (human) (UniProt P14902); assay: ELISA
[9] = target: His-tagged IDO1 human recombinant protein (71182, BPS Biosciences) (human) (UniProt P14902); assay: sandwich ELISA: biotinylated macrocycle on NeutrAvidin plate, His-tagged IDO1 titrated, anti-6XHis-AP detection
[10] = target: His-tagged IDO1 human recombinant protein (71182, BPS Biosciences) (human) (UniProt P14902); assay: binding analysis, method not named

B1: Deprotected-Inh-PEG8-wyvay (peptide)
peptide: [dW][dY][dV][dA][dY]-Az4
modifications: triazole N-C; not fully specified (N-terminus); reading uncertain; also: small molecule Inh joined via PEG8 linker, attachment point not given here
For B1, the IC50, IDO1 inhibition assay [1] was 350 nM, the Inhibition Recombinant IDO1 IC50 [1] was 407 nM and the EC50 [2] was 34 nM. The IC50, IDO1 inhibition assay [3] was 407 nM and the EC50 [4] was 36 nM.

B2: Protected-Inh-PEG8-wyvay (peptide)
peptide: [dW][dY][dV][dA][dY]-Az4
modifications: triazole N-C; not fully specified (N-terminus); printed as Protected-Inh-PEG8-wyvay; reading uncertain; also: Inh hydroxyamidine masked as oxadiazolone
In the case of B2, the EC50 [5] is reported as 92 nM, the fold decrease in binding affinity (EC50) against the deprotected heterobiligand [6] is reported as 3 fold and the IC50, IDO1 inhibition assay [3] is reported as over 10000 nM.

B3: Biotin-PEG3-Cy(waray) (peptide)
peptide: WARAY
modifications: all D-amino acids; ring closed by triazole between flanking N-terminal Pra and C-terminal Az4; N-terminal biotin-PEG3
For B3, the EC50 [7] was 98 nM.

B4: biotin-PEG3-Cy(wyray) (peptide)
peptide: WYRAY
modifications: all D-amino acids; ring closed by triazole between flanking N-terminal Pra and C-terminal Az4; N-terminal biotin-PEG3
B4 gave an EC50 [8] of 25 nM, an EC50 [7] of 25 nM and an EC50 [9] of 25 nM.

B5: Biotin-PEG3-Cy(ayray) (peptide)
peptide: AYRAY
modifications: all D-amino acids; ring closed by triazole between flanking N-terminal Pra and C-terminal Az4; N-terminal biotin-PEG3
B5 gave an EC50 [7] of 103 nM.

B6: biotin-PEG3-Cy(rffyl) (peptide)
peptide: RFFYL
modifications: all D-amino acids; ring closed by triazole between flanking N-terminal Pra and C-terminal Az4; N-terminal biotin-PEG3
For B6, the EC50 [9] was 125 nM.

B7: Biotin-PEG3-Cy(wyaay) (peptide)
peptide: WYAAY
modifications: all D-amino acids; ring closed by triazole between flanking N-terminal Pra and C-terminal Az4; N-terminal biotin-PEG3
Work on B7 yielded an EC50 [7] of 65 nM.

B8: Biotin-PEG3-Cy(wyry) (peptide)
peptide: WYRY
modifications: all D-amino acids; ring closed by triazole between flanking N-terminal Pra and C-terminal Az4; N-terminal biotin-PEG3
Binder B8 has an EC50 [7] of 18 nM.

B9: Biotin-PEG3-Cy(wray) (peptide)
peptide: WRAY
modifications: all D-amino acids; ring closed by triazole between flanking N-terminal Pra and C-terminal Az4; N-terminal biotin-PEG3
B9 was tested, and the EC50 [7] was 79 nM.

B10: wyvay macrocycle (peptide)
peptide: [dW][dY][dV][dA][dY]
modifications: triazole (positions not given here); also: ring closed by flanking Pra and Az4, not in chain
In the case of B10, the EC50 [8] is reported as 45 nM and the EC50 [10] is reported as 45 nM.

B11: Biotin-PEG3-Cy(yray) (peptide)
peptide: YRAY
modifications: all D-amino acids; ring closed by triazole between flanking N-terminal Pra and C-terminal Az4; N-terminal biotin-PEG3
For B11, the EC50 [7] was 113 nM.
